How the values were obtained:
[1] = biological target: T1, QTRT1 (catalytic subunit of TGT);QTRT2 (accessory subunit of TGT) (Mus musculus;Mus musculus, UniProt Q9JMA2;B8ZXI1 1-403;1-415, |); assay: MST; no 9dG; MST: 20 mM HEPES pH 7.5, 75 mM NaCl, 1 mM MgCl2, 0.025% Tween 20, 2 mM DTT, 50 nM Cy5-tRNA, 25 C, +/-100 uM 9dG; EMSA: same buffer without Tween, 100 uM 9dG, 200 nM tRNA, 4 C, 6% native gel; conditions: protein: recombinant;recombinant, copies: 1;1, label: Cy5-cytosine incorporated during transcription (MST, EMSA)
T1 sequence (Q9JMA2 whole entry, chain 1 of 2): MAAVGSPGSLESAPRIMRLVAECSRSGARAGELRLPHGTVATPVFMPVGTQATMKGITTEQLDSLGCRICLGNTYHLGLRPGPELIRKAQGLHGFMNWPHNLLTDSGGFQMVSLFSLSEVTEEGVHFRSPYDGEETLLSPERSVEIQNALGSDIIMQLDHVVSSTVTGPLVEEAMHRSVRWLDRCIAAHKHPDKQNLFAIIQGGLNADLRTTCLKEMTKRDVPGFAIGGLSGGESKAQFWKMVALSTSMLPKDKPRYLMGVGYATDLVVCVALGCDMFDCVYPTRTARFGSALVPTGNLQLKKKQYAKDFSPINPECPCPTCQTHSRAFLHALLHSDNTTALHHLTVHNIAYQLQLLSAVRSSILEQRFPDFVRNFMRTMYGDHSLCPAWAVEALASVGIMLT
T1 sequence (B8ZXI1 whole entry, chain 2 of 2): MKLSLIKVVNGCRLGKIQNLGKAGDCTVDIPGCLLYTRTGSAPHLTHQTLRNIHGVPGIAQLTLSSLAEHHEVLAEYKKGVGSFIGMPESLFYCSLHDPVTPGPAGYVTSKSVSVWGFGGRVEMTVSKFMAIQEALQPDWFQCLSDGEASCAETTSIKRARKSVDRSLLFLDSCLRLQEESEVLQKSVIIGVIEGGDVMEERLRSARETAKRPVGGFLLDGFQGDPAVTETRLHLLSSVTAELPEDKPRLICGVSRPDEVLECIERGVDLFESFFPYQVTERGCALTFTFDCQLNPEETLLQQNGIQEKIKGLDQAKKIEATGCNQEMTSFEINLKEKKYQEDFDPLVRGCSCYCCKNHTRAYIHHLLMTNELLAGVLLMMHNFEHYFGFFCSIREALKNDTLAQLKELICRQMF

[2] = biological target: T1, QTRT1 (catalytic subunit of TGT);QTRT2 …; assay: MST; 100 uM 9-deazaguanine; apparent Kd (covalent trapping); MST: 20 mM HEPES pH 7.5, 75 mM NaCl, 1 mM MgCl2, 0.025% Tween 20, 2 mM DTT, 50 nM Cy5-tRNA, 25 C, +/-100 uM 9dG; EMSA: same buffer without Tween, 100 uM 9dG, 200 nM tRNA, 4 C, 6% native gel; conditions: protein: recombinant;recombinant; copies: 1;1; label: Cy5-cytosine incorporated during transcription (MST, EMSA); tRNA cloverleaf with intron in anticodon loop
[3] = biological target: T1, QTRT1 (catalytic subunit of TGT);QTRT2 …; assay: MST; no 9dG; value from peer review file (main text calls 2-1 slightly weaker); MST: 20 mM HEPES pH 7.5, 75 mM NaCl, 1 mM MgCl2, 0.025% Tween 20, 2 mM DTT, 50 nM Cy5-tRNA, 25 C, +/-100 uM 9dG; EMSA: same buffer without Tween, 100 uM 9dG, 200 nM tRNA, 4 C, 6% native gel; conditions: protein: recombinant;recombinant; copies: 1;1; label: Cy5-cytosine incorporated during transcription (MST); tRNA cloverleaf with intron in anticodon loop
[4] = biological target: T1, QTRT1 (catalytic subunit of TGT);QTRT2 …; assay: MST; 9-deazaguanine; apparent Kd from peer review file; MST: 20 mM HEPES pH 7.5, 75 mM NaCl, 1 mM MgCl2, 0.025% Tween 20, 2 mM DTT, 50 nM Cy5-tRNA, 25 C, +/-100 uM 9dG; EMSA: same buffer without Tween, 100 uM 9dG, 200 nM tRNA, 4 C, 6% native gel; conditions: protein: recombinant;recombinant; copies: 1;1; label: Cy5-cytosine incorporated during transcription (MST); tRNA cloverleaf with intron in anticodon loop
[5] = biological target: T1, QTRT1 (catalytic subunit of TGT);QTRT2 …; assay: MST; 100 uM 9-deazaguanine; apparent Kd (covalent trapping; review file cites 1.2); MST: 20 mM HEPES pH 7.5, 75 mM NaCl, 1 mM MgCl2, 0.025% Tween 20, 2 mM DTT, 50 nM Cy5-tRNA, 25 C, +/-100 uM 9dG; EMSA: same buffer without Tween, 100 uM 9dG, 200 nM tRNA, 4 C, 6% native gel; conditions: protein: recombinant;recombinant; copies: 1;1; label: Cy5-cytosine incorporated during transcription (MST, EMSA); tRNA cloverleaf

B1: m_pre-tRNATyr 1-4 (intron-containing) (structured_RNA)
RNA: GGCCUUCGAUAGCUCAGUUGGUAGAGCGGAGGACUGUAGGUCAUUGUUCUAGAAAUCCUUAGGUCGCUGGUUCGAAUCCGGCUCGAAGGA
modifications: none (unmodified transcript)
Kd ([1]; tRNA cloverleaf with intron in anticodon loop): 6 ± 0.7 µM | Kd [2]: 2400 ± 200 nM

B2: m_pre-tRNATyr 2-1 (intron-containing) (structured_RNA)
RNA: GGCCUUCGAUAGCUCAGUUGGUAGAGCGGAGGACUGUAGUCAGUACAAUAUGGUAAUCCUUAGGUCGCUGGUUCGAUUCCGGCUCGAAGGA
modifications: none (unmodified transcript)
Kd [3]: 2700 nM | Kd [4]: 1400 nM

B3: m_tRNATyr (mature, GUA) (structured_RNA)
RNA: GGCCUUCGAUAGCUCAGUUGGUAGAGCGGAGGACUGUAGAUCCUUAGGUCGCUGGUUCGAAUCCGGCUCGAAGGA
modifications: none (unmodified transcript)
Kd ([1]; tRNA cloverleaf): 2.4 ± 0.7 µM | Kd [5]: 1100 ± 300 nM

Reference: PMC12313893, “Queuosine is incorporated into precursor tRNA before splicing”
